According to US6897197:

Target: human MDM2, full length (CMV driven expression construct pCHDM1A) (human) (UniProt Q00987)
Test: cell-based or functional assay

Sequence of human MDM2, full length (CMV driven expression construct pCHDM1A) (human) (Q00987 whole entry): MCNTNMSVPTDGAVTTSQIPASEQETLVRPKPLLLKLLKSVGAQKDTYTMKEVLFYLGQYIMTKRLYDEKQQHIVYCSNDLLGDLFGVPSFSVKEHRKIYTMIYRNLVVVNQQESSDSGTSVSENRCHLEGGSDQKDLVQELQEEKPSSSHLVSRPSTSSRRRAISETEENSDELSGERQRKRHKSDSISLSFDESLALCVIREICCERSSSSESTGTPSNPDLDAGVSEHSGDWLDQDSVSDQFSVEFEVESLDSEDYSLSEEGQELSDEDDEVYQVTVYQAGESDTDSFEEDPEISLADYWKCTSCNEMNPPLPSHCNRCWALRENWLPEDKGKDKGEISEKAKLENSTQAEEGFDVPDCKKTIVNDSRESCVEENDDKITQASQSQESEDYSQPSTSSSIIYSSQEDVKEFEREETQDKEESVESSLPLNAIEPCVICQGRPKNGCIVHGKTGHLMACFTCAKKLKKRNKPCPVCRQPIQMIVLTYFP

transformed foci in MDM2/RAS REF cotransformation with p19^ARF added (40 foci without): 3 foci
Substance: mouse p19^ARF (complete ORF, expression construct in pVNic) (from UniProt Q64364 1-169)
